Reference: the supplement of paper PMC10724198
± gives the standard deviation of the averaged measurements.

Test system: Saccharomyces cerevisiae
Experiment: protein stability index of tFT-peptide fusion (C-terminal peptide) (PSI (0-1 scale)); higher = more stable (slower turnover)
Details: genetic background: wild type; temperature: 30 C
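Also: PSI is a weighted mean of sequencing reads over stability bins, variants kept only with over 10 reads, mCherry proximal and sfGFP distal, peptide attached via GGGS linker.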

Sequence	protein stability index
RRGAVHWKQFTR	0.732 ± 0.072
RRGAVWDLVGDG	0.571 ± 0.029
RRGDMSEGEREE	0.672 ± 0.052
RRGVPIKKPRYF	0.539 ± 0.029
RRGYLVPLPSHA	0.669 ± 0.039
RRHGTDEHKTAD	0.674 ± 0.016
RRKGRKTSMRNG	0.667 ± 0.048
RRKRKQQNTTTE	0.685 ± 0.016
RRKRQKEGEIRE	0.7362 ± 0.0064
RRLATRMGPCDA	0.682 ± 0.011
RRLGVACCVVEG	0.599 ± 0.0061
RRLLERSIKRSE	0.696 ± 0.016
RRLSRPPNLSRH	0.676 ± 0.021
RRMCARRSAAIV	0.665 ± 0.046
RRNSAGCRLDKM	0.662 ± 0.09
RRPHLLCSPARL	0.883 ± 0.012
RRREGGQGERGK	0.694 ± 0.087
RRRGEREKRPRA	0.653 ± 0.021
RRRLRSGYCCLV	0.6861 ± 0.00091
RRRPNSSMYRVS	0.658 ± 0.015
RRSAWCAALPGR	0.704 ± 0.0089
RRSDTTQQSVSL	0.623 ± 0.077
RRSHGLAGPKKG	0.674 ± 0.05
RRSVQLQSALFI	0.736 ± 0.069
RRVPPGTPCGTR	0.708 ± 0.073
RRVTTSFWPLGS	0.671 ± 0.067

Sequence	protein stability index
RSARGQFRGISC	0.739 ± 0.23
RSDGRWYAGGLG	0.737 ± 0.018
RSDIANWFLCLS	0.798 ± 0.037
RSDPLPKTSAAY	0.644 ± 0.12
RSGFTSSPLRSG	0.681 ± 0.034
RSGREFLLSSLI	0.718 ± 0.084
RSGRSLVGREGG	0.703 ± 0.059
RSIQNLQENIIR	0.663 ± 0.073
RSLGLVGWGFWG	0.762 ± 0.12
RSMLRVELSGVA	0.562 ± 0.031
RSPAPPAPPHLP	0.7068 ± 0.0012
RSPPPRAPPPSV	0.645 ± 0.06
RSPPYRPPCLRP	0.722 ± 0.02
RSRAYDSLPADQ	0.682 ± 0.058
RSRVLALSCRSA	0.641 ± 0.029
RSRYWRTHGKVN	0.557 ± 0.028
RSSPAVPPSPRP	0.6918 ± 0.0066
RSSPRCPPSPGH	0.7247 ± 0.0018
RSSSGANLQTTL	0.6517 ± 0.0031
RSTLGLAPPQSG	0.67 ± 0.029
RSTPPHAHRSPP	0.716 ± 0.015
RSVPHPGGPSPC	0.649 ± 0.037
RSVPLLFPSLFL	0.72 ± 0.027
RSVQSATSHGYQ	0.749 ± 0.15
RSYFGLACPSVS	0.626 ± 0.03
RSYGVGYEGDKG	0.719 ± 0.054

Sequence	protein stability index
RTAEGRVRGRPR	0.689 ± 0.067
RTASRSVSTTQN	0.745 ± 0.024
RTGAPSGEACCA	0.676 ± 0.026
RTGRTCADRPTP	0.757 ± 0.043
RTGVTKYSETLI	0.677 ± 0.091
RTIPSPDVRTRD	0.77 ± 0.011
RTKTQGKKRRQN	0.57 ± 0.032
RTPRGCSLAYRA	0.72 ± 0.11
RTRKYEDKSARM	0.688 ± 0.021
RTRRPSRTRSAS	0.772 ± 0.072
RTTNHRLPQPPR	0.632 ± 0.063
RVCPPPLRRLLS	0.693 ± 0.081
RVGERVEGGGVV	0.6085 ± 0.0034
RVGGVVRGERAR	0.671 ± 0.01
RVGSRRGVVCLL	0.7526 ± 0.0014
RVGWCGGWRGGR	0.677 ± 0.059
RVHEMSLGPIRL	0.715 ± 0.036
RVHSRSYNVMLD	0.6988 ± 0.00049
RVIEWHEEKLRV	0.783 ± 0.017
RVKNVDAVKKHK	0.635 ± 0.0088
RVLSVRFRIGRE	0.636 ± 0.061
RVPLHSSTVFWL	0.7 ± 0.04
RVPPAIPSRRAC	0.682 ± 0.06
RVPRYEKIVSSI	0.658 ± 0.013
RVRRWGSSTLVG	0.676 ± 0.041
RVRWRSQRSMVV	0.689 ± 0.025

Sequence	protein stability index
RVSGSFSCVCES	0.6814 ± 0.0054
RVSIDIMNALGR	0.627 ± 0.033
RVSPWSDLSAFL	0.745 ± 0.045
RVVGGRDVRGGG	0.737 ± 0.049
RWFQSSDVVDRQ	0.703 ± 0.086
RWGGWGYRGGVP	0.752 ± 0.062
RWRECVVWGVWG	0.663 ± 0.0096
RWRRGGRRAPWP	0.62 ± 0.012
RWSCLADQSANR	0.7052 ± 0.0051
RWWRLRSGGGRR	0.707 ± 0.017
RYHLHFIGDVGF	0.6974 ± 0.0042
SAGPNCVWSSYN	0.732 ± 0.0098
SAIGVGGVGTGG	0.633 ± 0.039
SALFLVPRASWL	0.659 ± 0.036
SALTSLAFGSFE	0.704 ± 0.046
SAPPLPPPPPPP	0.682 ± 0.016
SAPSAAPPRSHP	0.708 ± 0.025
SAPVPPSPPRPR	0.8 ± 0.0089
SAPYLSTTLSVK	0.671 ± 0.011
SAQGPVLFSTGP	0.716 ± 0.044
SARFALSQAPPI	0.814 ± 0.12
SARSAARRWVRR	0.694 ± 0.026
SASGARVEARMH	0.6435 ± 0.0017
SASLPSPCPDFG	0.6703 ± 0.0021
SASSAHLDGACR	0.691 ± 0.0075
SASSFGTLYCYS	0.6966 ± 0.0019

Sequence	protein stability index
SASVARSRRCVR	0.612 ± 0.057
SASVLPSPLPPV	0.708 ± 0.028
SATLRCASLSFC	0.679 ± 0.014
SATWQLPGYFLI	0.681 ± 0.04
SCFCNFFRFCCI	0.637 ± 0.029
SCFFFSWIRGFC	0.598 ± 0.032
SCFRTLPGRWPF	0.793 ± 0.022
SCLSLSGLPSPL	0.677 ± 0.062
SCSGTIGVYENP	0.684 ± 0.024
SCSVAIFLLSSP	0.6848 ± 0.0025
SCTPPLPFFTSF	0.704 ± 0.028
SCVSDAKMGGLG	0.655 ± 0.084
SCVWVPGCGPSR	0.679 ± 0.0072
SDDGIRLLNQSF	0.59 ± 0.095
SDVHGLSLSDVS	0.632 ± 0.085
SEAGSVMPIGLV	0.642 ± 0.082
SEIKKNKLTVMK	0.677 ± 0.016
SEPPPPTPPPLP	0.679 ± 0.18
SERKRMQRRVVY	0.655 ± 0.021
SERVCHESCLVG	0.68 ± 0.047
SESKMRKVEPKM	0.7459 ± 0.00085
SEVGLSFGLVSF	0.719 ± 0.032
SEYHGRAQKTGP	0.744 ± 0.034
SFAHIVSLPVSM	0.657 ± 0.037
SFAQANRYLTSL	0.699 ± 0.012
SFATPCCYPLHF	0.713 ± 0.037

Sequence	protein stability index
SFCACDRYRIGV	0.727 ± 0.038
SFGGRMSVPTCC	0.594 ± 0.035
SFGSAANSRAYI	0.749 ± 0.042
SFITFGGWLGGM	0.705 ± 0.14
SFLGLDDEICLR	0.716 ± 0.044
SFLISPFSLFSS	0.771 ± 0.051
SFLPHALPATAS	0.682 ± 0.07
SFPFSCSSSVTH	0.72 ± 0.055
SFPPVSSLSFSP	0.707 ± 0.048
SFSAFRCDPAEM	0.676 ± 0.011
SFSLPLSPPSFF	0.721 ± 0.058
SFSPSVLSREVS	0.66 ± 0.066
SFSQTFSSLSSP	0.702 ± 0.054
SFVGPFCLTLSI	0.596 ± 0.092
SFVQLNGAVDLA	0.717 ± 0.031
SGAADGDADRHP	0.721 ± 0.029
SGAGGGGWWGGV	0.731 ± 0.011
SGAGVNWGVGGG	0.728 ± 0.019
SGATVGVLCFAS	0.58 ± 0.006
SGCCCGSDVYIG	0.6905 ± 0.0055
SGCVLCLCCYMV	0.666 ± 0.015
SGCWREVEVGFG	0.737 ± 0.059
SGFLAKNIKQLC	0.578 ± 0.042
SGFQAPGSVASE	0.623 ± 0.014
SGFQIRVPVFMG	0.619 ± 0.0095
SGFVQRLHVICN	0.5706 ± 0.0011

Sequence	protein stability index
SGGCVLRLWGFV	0.6853 ± 0.0019
SGHRLGRGQGQR	0.67 ± 0.02
SGIYQTTSYIKI	0.7505 ± 0.0029
SGLFPLSPKPCP	0.619 ± 0.11
SGLGRETHGSYS	0.66 ± 0.012
SGMGGCRKGFEG	0.717 ± 0.011
SGPRVCPGMHWQ	0.651 ± 0.013
SGPYPVGKQRSE	0.649 ± 0.05
SGRGWILCAYRV	0.632 ± 0.024
SGRSGECEGSWD	0.662 ± 0.13
SGRTQPRGKHNA	0.683 ± 0.016
SGRVELGVVGGG	0.695 ± 0.04
SGSCPSSTSATT	0.732 ± 0.057
SGSGVLVGCLGS	0.68 ± 0.038
SGSVALWVCSVV	0.5878 ± 0.0056
SGTVRSTPPHPP	0.664 ± 0.0072
SGVAAPVRPRSV	0.854 ± 0.11
SGVAYAVYLVFR	0.472 ± 0.047
SGVFARIKRTVV	0.489 ± 0.072
SGVGCLVFGRGF	0.645 ± 0.046
SGVGPGNPPRPG	0.689 ± 0.011
SGVPGGSVGVPG	0.661 ± 0.028
SGVVSASFVVLD	0.677 ± 0.01
SGWEVAGGCDNK	0.692 ± 0.0021
SGWRCSVAVLQV	0.592 ± 0.033
SGYYTRVFICEV	0.618 ± 0.025

Sequence	protein stability index
SHESRPNLGCIY	0.678 ± 0.026
SHFPPPSTPPVL	0.713 ± 0.015
SHLPPRSPPVPS	0.6825 ± 0.0051
SHPPPPPSPPPR	0.6922 ± 0.0051
SICSIRPFSDLP	0.683 ± 0.015
SIGYDLFTKDKI	0.789 ± 0.13
SIIRYNKSATIT	0.667 ± 0.047
SIIYKRKKGRRW	0.714 ± 0.039
SILTALGEVLLV	0.665 ± 0.013
SILVAGVSAGRC	0.669 ± 0.021
SIMSVLPYCSCS	0.708 ± 0.06
SIQCHNTKKFYE	0.715 ± 0.032
SISSVFCTGRCH	0.721 ± 0.19
SIVAWGWPAASE	0.85 ± 0.19
SIVIGGSWGRSW	0.711 ± 0.052
SIVSQGISDLGR	0.656 ± 0.046
SIYIEKERKMIV	0.686 ± 0.025
SKGECYSETDVA	0.684 ± 0.018
SKKNKPAQRRPH	0.729 ± 0.026
SKKRKEKRTKEW	0.63 ± 0.083
